Source: the DeepSol protein solubility set

experiment: soluble on expression in E. coli; label from the status in PepcDB or PDB records

| Sequence | soluble on expression in E. coli |
| --- | --- |
| MSSSHLAERHAFSDLSLLSEALAQSVTVTLRNAIERYGKASLVVPGGHTPVVYLPRLAQMDLPWQQVFITLSDERWVEPTSEQSNERLVREHFLQHMQQQPHFIALKTGHIHPDQAITDIDARLAELPQPFSLVILGLGEDGHIASLFPGMALNPDTTSLCQTATPPAAPSLRISLSLHALINSDRIILVITGKEKRQLIDRLIESPDQNIPFVRLMQFKPVELFETD | not soluble |
| MKRLILPIACGICTVTSDAQTDKQPHPNVIFIYADDLGYKDLSCTGSRFYETPHIDKLAREGVCFTQSYAACPVSSPSRAALLTGKYPARINLTDYIPGDRAYGPHKNQRLASLPFNLHLSKDEITMAEAFRQNGYSTFMAGKWHLAESAEYYPEQNGFDINIGGNNTGHPSKGYFSPYGNPQLKDGPEGEYLTDRLTDEVIRYISEPKEKPFFVYLSYYTVHLPLQAKAEKIAKYRRKLSRAVPADSSFVKKGETYHKLVQDIPAYAAMVESLDENIGRLLDTLHRSGLDERTIVVFTSDNGGMATSNTTRNIPTSNLPLRAGKGYLYEGGIKVPAIIRWSGHLKGRQVSDTPIIGTDYYPTLLDLCGLPLLPGQHVDGVSMKPVLQGGRLSRPSLFWHYPHYSGGLGGRPSAAIREGDYKLIEFFEDHHVELYNVIQDESEEKDLSQIYPEIADGLRKKLYLWYKEVGARMPVDNPHYVSPVKDSDSFENKLEHHHHHH | not soluble |
| MDLPQEIETNMECPVCGSLLYLLTYDTDIPYEGRISIYTYQCKKCMYRKTEVYQEEEKNPVRITLKIESPEDLKTLVYRSRKADIYIPEIEASIDSAEYANGEITTVEGIIYRIGEKLDLLSYDDEEKEAVKEVRKKIDDIINGYFGSFTLIITDESGKSVIESEKAITEKILEHHHHHH | not soluble |
| MGSDKIHHHHHHLAVLRYTVTNTGQLSVSGSWSASVKHPLIAVVFSSGRPDAPTLGKILKQLKKRYGIKNFNAVGHSAGSAAWANWAVTPDKQGMPQLRRLITIAGPFNGFPGMPGMNGGQHITLAKDGRPNVMSDRYKPLYDNRRYFPKTAAVLNLFGNLGKGTDGRVPVNSARSLRYVVAGRAKSYTEREITNSKAQHSQLHEHNPLVNRYLYEFLNNGKITN | not soluble |
| MASFIPNLPSWAKHVDLKFRSALVLSQLFTKSWGHPDVIKQMAKYRRDVMSKRLVMDYVKELNPKIDIVKKYSKNGVTSYEGFFASPHATLFPNHMPGNVGRAHFRAYLPQKPGPVCIHLAGTGDHSYFRRHYLLVDDMLKDGVGSILIQNPFYGDRKPPNQFRSSLENVTDLFVMGAALIAECNHLFNWSETLGYGPFAISGVSMGGFMAQLAGSNSQRPISIVPILAWTTASPSYTEGAISPAVNYSLLQKQLEDPHYVDKIRRIPNQNWLDKMREMTARNGDSEAKNMMRILMDDFTSLEFYPTPIDTSLCHVFLADQDQYVLRNQGTPTYQQLWPNVTVEMMEGYGHVTAYLSKHDLWRRRITELLRRQQQKTI | not soluble |
| MPLSSPDRLAIAVDLGTTTLAASLLDMATGERLAVAGSLNPQREFGADVIARLDAACRSKEARHRMAELVRGAIGRLAGELLESVGRSPEHLVTIAVAGNPAMEHLLLDLPVDALAFPPYRPLFTAGKTVPAVGLGWDLPAEVFLFPLPGGFVGGDTVAFLHGVPGPRSPVPGPRLYLDMGTNGEIALAADGKLLATSAAAGPAFEGGNLSCGMAALPGAISGVTFDGERLLVSTVEGKPATGICGSGVLSAIALLLDQGAIDSTGRLLPPEEIPSSIGNRLTTMGDERAFVLHRDATRTVWLSQEDIRQVQLAKGAIRAGMEVLFDRAGIESGAVGSVVLTGSFGAVLDPHSLKSLGVFTENMVQTTSFVREGALRGVEHALLTSGGLAAVDHLAGTIRVIPLSGTPAFEKHFLQHINFPHTILEHHHHHH | soluble |
| MMNVPEGFQPLFRSSPLLDLLGPFFCRQDAQRQLVVALRIDEKHCNHGGTAHGGLLSTLADVGLGYAMAFSREPPQPMVTVGLRLDFCGVARVGDWLEVHTRVDKLGQRMAFASARLHSGERLVASASGVFHLP | not soluble |
| MKKMLTFLTTCALSFGVSAQSWEETTEKARGQTVYFHAWGGSQEINSYLRWSADLLKSRYGVTLQHVKVTDIAETTTRLIAEKAAGKNEQGSVDLVWINGENFKSMKNNQLLYGPFVEDLPNWPKVDKSLPVDSDFSEPTEGLEAPWGVGQLVFIHDKQQVNNPPASFAELLSYAQAFPNRISYPQPPEFHGTSFLKAALIELTHYAPELNQAVEPATFEQLTQPLWQYLDELHAVAWRKGKQFPAGSAQMMQLLDDGQLDLAITFNPNAVFSAQATGKLAPTAQSYAMKKGALTNIHFLAIPWNANAKEGALVAINFLLSDEAQSRKGDLSIWGDPSILKPQFLTGSAKNTILFPAIAEPHPSWQSALEAEWQKRYGNSLK | not soluble |
| AHHHHHHGSLVVKDLNVEYDNVKVLKGISFALNSGEKAIILGTNGAGKTTLLKSLLGLIPIKSGKIQICGKPYEKVVGEKKVSTNLESVYKLVYSIKVSELIDLYCDLKEIPSQQILNFIKEMKLEHILEKKFYNLSSGEKKCLTNLLAFFTDSKLILLDEPFEGLDPWRTNKTVEILNSLKSSIIMTTHRLDILSKFSTFKVYFLFNGHLYGPIRSASDLVNCYVTFSDIEEGESDIVLRIQGDKKNVILTRRPIGQKISDYASIDEIYRVMLE | not soluble |
| MAHHHHHHMSDEGFEDLFILDTDPEELYEELGPIGVGNYGSVIKARNRHTQEITAIKLVLLVDKDERDFVQREISILKHCRHPNIVHYYGAHKSLSKLWIVMEYCEGGSIDMVYKVLRHPLPEPLIAYVCRQVLLGLQYLHANRKIHRDIKGGNILLTRDGGVKLADFGVSTELSHSLSRRNTFVGTLLWMAPEAILELDYDEKADLWSLGITLIEMAEGAPPYIDTHPARALFMIPKMDPPSLQDKERWSPQMTLFLKRLLTKDHNARPTATTMLNDPFVLPENIGTQEQLKAVIDEVLAKKASIDPQRMRDYTDSSATFVERTSSDGGGGDDHSTDSRDEVQPHLTAKGLTNAPANSIEALDGAGTHLFFQDGTLLPLPMLYTQDISFDELCVGEELNGPFSLPVPSVESLLVPPEQQSTACHGGEALAHTMHVTAKLKEMLYYHKQLPYCRGLTDAEAAKSREMQLKYGSVLKSVYRL | not soluble |
| MGSDKIHHHHHHMSDTITFWGVRGSIACPFPGHMAYGGNTSCVALGLGGQTVILDAGTGIRALGASAALRGVSRLALLFSHVHRDHIEGFPFFAPAHDRAVRLDIFAGPIEGASIRQLLDNLMSRPMFPLSLDQLRAQKVFHDLPAATAFTLFERIKVRTAALNHPGGATAYRFEHGGRVVCYVTDTEHRPGQPDAGLLELIAGADYVLYDSTYTDREFAAHRGWGHSTWEEGVRLCRQAGARHLVIFHHDPDHDDAAMAAIETAARAAWGGTLVAREGMTIALDSGVVTQAGR | not soluble |
| MSNSFEILMNQLGMPAEMRQAPALAQANIERVVVHKISKVWEFHFVFSNILPIEIFLELKKGLSEEFSKTGNKAVFEIKARSQEFSNQLLQSYYREAFSEGPCASQGFKSLYQNLQVRAEGNQLFIEGSEAIDKEHFKKNHLPNLAKQLEKFGFP | not soluble |
| NSAHQFHNQQEGEHYILAGYPWFKCRARDMFISLPGLTLALEEVDQFEDVMKTAEKAIRSFINDEPAGYKIYEMEHPDVLLWAVWALQQYAKETSREQCRQKYGELLKDIIEFIRQRKHENLFLHENGLLYANGTDKAITWMNSTVNGHPVIPRTGYIVEFNALWYNALRFVADLVREDGNVLLADALDAQAEVTGKSFIEVFRNEYGYLLDYVDGNMMDWSVRPNMIFAVAFDYSPLDRAQKKQVLDIATKELLTPKGLRTLSPKSGGYNPNYVGPQIQRDYAYHQGTAWPWLMGFYMEAYLRIYKMSGLSFIERQLIGLEDELTIHCISSLPELFDGNPPFKGRGAVSFAMNVAEVLRILKLLSKYY | not soluble |
| MSLSKHSHYKDKKKFYKKVEQFKEFQERISVHFQNEKLLYQAFTHSSYVNEHRKKPYEDNERLEFLGDAVLELTISRFLFAKYPAMSEGDLTKLRAAIVCEPSLVSLAHELSFGDLVLLGKGEEMTGGRKRPALLADVFEAFIGALYLDQGLEPVESFLKVYVFPKINDGAFSHVMDFKSQLQEYVQRDGKGSLEYKISNEKGPAHNREFEAIVSLKGEPLGVGNGRSKKEAEQHAAQEALAKLQKHHTKQEGGSHHHHHH | soluble |
| QNNKDEKKITKIGVLQFVSHPSLDLIYKGIQDGLAEEGYKDDQVKIDFMNSEGDQSKVATMSKQLVANGNDLVVGIATPAAQGLASATKDLPVIMAAITDPIGANLVKDLKKPGGNVTGVSDHNPAQQQVELIKALTPNVKTIGALYSSSEDNSKTQVEEFKAYAEKAGLTVETFAVPSTNEIASTVTVMTSKVDAIWVPIDNTIASGFPTVVSSNQSSKKPIYPSATAMVEVGGLASVVIDQHDLGVATGKMIVQVLKGAKPADTPVNVFSTGKSVINKKIAQELGITIPESVLKEAGQVI | not soluble |
| MNYILKQMLGGRQVIATHTCIGMDTDAFQNGRNLVTDTLEIYTGDLRKTLDTLSSIFHPSSFPLKSLRILDNADFKHPIIQGSLLLVVPNTENMHLISNKRVHARYFYYKDDVDFIINKWLDDGKEAGTHFSIGMFLTEDHVKEKYEEFLSTFEERVSWRTNYPPCFAINIDNFSEIVIGYEEFQQISTPEWRLNFKVQKREEFV | not soluble |
| MSLSAHEIRELFLSFFEKKGHTRVKSAPLVPENDPTLLFVNAGMVPFKNVFLGLEKRPYKRATSCQKCLRVSGKHNDLEQVGYTSRHHTFFEMLGNFSFGDYFKKEAIEYAWEFVTEVLKLPKEKLYVSVYKDDEEAYRIWNEHIGIPSERIWRLGEEDNFWQMGDVGPCGPSSEIYVDRGEEYEGDERYLEIWNLVFMQYNRDENGVLTPLPHPNIDTGMGLERIASVLQGKNSNFEIDIIFPLIQFGEEVSGKKYGEKFETDVALRVIADHLRAITFAISDGVIPSNEGRGYVIRRILRRAMRFGYKLGIENPFLYKGVDLVVDIMKEPYPELELSREFVKGIVKGEEKRFIKTLKAGMEYIQEVIQKALEEGRKTLSGKEVFTAYDTYGFPVDLIDEIAREKGLGIDLEGFQCELEEQRERARKHFKVEAKKVKPVYSHLKELGKTSAFVGAAALEHHHHHH | soluble |
| MNNDKLQRMVENLSEEKFGRTFRHCAYFNKRLRTTGGRYLLKSHDIEINPKQYEHYGEDAVVKIILHELCHYHLHIAGKGYQHKDQDFKRLSQQVGAPRFCNSIESYQQRANYEYYCTKCHAKYIRIRKVDTNRMRCGHCNGKLRMKRQLK | not soluble |
| MGSDKIHHHHHHMARYTGPLCKLCRREGMKLYLKGERCYTDKCAFDRRPYAPGQHGQRRTKLTQYGIQLRAKQTVKRIYGILERQFERYVEKAMQKAGDTRENLIQILEARLDNVVYRMGFAINRRQARQLVNHGHFLVNGKKVNIPSYLLRPNDVVEVREKSRDLEVIKKAIEANKERSIVPWIEVDYDNYRGTFLRYPSLEEVTDLPVDLQTVIEFYSR | not soluble |
| MLSMPWSEIDTVLLDMDGTLLDLHYDEHFWMQHLPQRYAELHGISFAMAWLELKPLFENNAGTLNWYCLDFWSTELKLSVRDLKREIAHMIALRPDAETFLAAIKQAGKRVIMITNAHRDSLSLKMERIELAPYFERLISSHDYGFPKESQHFWDALKAETAFDPARSLFIDDTLPILRSARHFGVAHLLAVSQPNSQKGPKDTEEFAAVGDYRELIKGL | not soluble |
